Experimental data reported in patent US20240067720A1 (SHANGHAI JUNSHI BIOSCIENCES, published 2024).

Target: T1, hTIGIT expressed on Jurkat reporter cells (hTIGIT/NFAT-luciferase) (human, UniProt Q495A1 22-244)
T1 sequence (looked up): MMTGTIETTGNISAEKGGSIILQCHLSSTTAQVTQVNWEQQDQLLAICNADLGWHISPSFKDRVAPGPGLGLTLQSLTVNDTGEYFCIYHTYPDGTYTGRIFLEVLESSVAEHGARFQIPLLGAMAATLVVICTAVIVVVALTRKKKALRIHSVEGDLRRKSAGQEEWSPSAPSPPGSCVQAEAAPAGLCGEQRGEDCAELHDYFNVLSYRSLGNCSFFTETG
Assay: cell-based or functional assay

- EC50 of T cell activation; luminescence of Jurkat hTIGIT/NFAT-luciferase reporter cells co-cultured with CHO cells expressing hPVRL2: 0.0424 µg/mL
B1: humanized anti-TIGIT monoclonal antibody hu20 (antibody, human IgG4 S228P, kappa, V domains shown)
VH: QVQLVQSGAEVKKPGASVKVSCKTSGYAFTEYTMHWVRQAPGKGLEWMGGINPNTGGTTYNQKFQGRVTLTVDKSSSTAYMELSSLRSEDTVVYYCAKLLRLMYYFDYWGQGTLVTVSS
VL: DIQMTQSPSSLSASVGDRVTITCQASQDVRTAVAWYQQKPGKAPKLLIYSASYRYTGVPSRFSGSGSGTDFTFTISSLQPEDIATYYCHQHYITPWTFGGGTKVEIKR
